Data reported in IntAct's records for PubMed 29892012.

B1: Keratin, type I cuticular Ha8 (Homo sapiens), O76015 (parent)
chain: MTSSYSSSSCPLGCTMAPGARNVSVSPIDIGCQPGAEANIAPMCLLANVAHANRVRVGSTPLGRPSLCLPPTCHTACPLPGTCHIPGNIGICGAYGENTLNGHEKETMQFLNDRLANYLEKVRQLEQENAELEATLLERSKCHESTVCPDYQSYFHTIEELQQKILCSKAENARLIVQIDNAKLAADDFRIKLESERSLRQLVEADKCGTQKLLDDATLAKADLEAQQESLKEEQLSLKSNHEQEVKILRSQLGEKLRIELDIEPTIDLNRVLGEMRAQYEAMLETNRQDVEQWFQAQSEGISLQDMSCSEELQCCQSEILELRCTVNALEVERQAQHTLKDCLQNSLCEAEDRFGTELAQMQSLISNVEEQLSEIRADLERQNQEYQVLLDVKTRLENEIATYRNLLESEDCKLPCNPCSTSPSCVTAPCAPRPSCGPCTTCGPTCGASTTGSRF
partner: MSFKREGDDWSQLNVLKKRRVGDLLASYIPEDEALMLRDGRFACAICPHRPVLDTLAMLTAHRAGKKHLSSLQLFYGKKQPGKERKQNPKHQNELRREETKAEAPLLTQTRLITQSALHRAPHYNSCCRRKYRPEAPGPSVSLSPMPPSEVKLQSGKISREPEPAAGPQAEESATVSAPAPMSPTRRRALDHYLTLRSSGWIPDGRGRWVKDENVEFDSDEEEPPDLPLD
B2: Genetic suppressor element 1 (Homo sapiens), Q14687 (parent)
chain: MKGMSHEPKSPSLGMLSTATRTTATVNPLTPSPLNGALVPSGSPATSSALSAQAAPSSSFAAALRKLAKQAEEPRGSSLSSESSPVSSPATNHSSPASTPKRVPMGPIIVPPGGHSVPSTPPVVTIAPTKTVNGVWRSESRQDAGSRSSSGGRERLIVEPPLPQEKAGGPAIPSHLLSTPYPFGLSPSSVVQDSRFPPLNLQRPVHHVVPPSTVTEDYLRSFRPYHTTDDLRMSSLPPLGLDPATAAAYYHPSYLAPHPFPHPAFRMDDSYCLSALRSPFYPIPTPGSLPPLHPSAMHLHLSGVRYPPELSHSSLAALHSERMSGLSAERLQMDEELRREREREREREREREADREREKEREREREKEREQEKEREREKERERELERQREQRAREKELLAAKALEPSFLPVAELHGLRGHATEERGKPSEQLTPTRAEKLKDAGLQAPKPVQHPLHPVPTPHHTVPSLISNHGIFSLPSSSAATALLIQRTNEEEKWLARQRRLRQEKEDRQSQVSEFRQQVLEQHLDMGRPPVPAEAEHRPESTTRPGPNRHEPGGRDPPQHFGGPPPLISPKPQLHAAPTALWNPVSLMDNTLETRRAESHSLHSHPAAFEPSRQAAVPLVKVERVFCPEKAEEGPRKREPAPLDKYQPPPPPPREGGSLEHQPFLPGPGPFLAELEKSTQTILGQQRASLPQAATFGELSGPLKPGSPYRPPVPRAPDPAYIYDEFLQQRRRLVSKLDLEERRRREAQEKGYYYDLDDSYDESDEEEVRAHLRCVAEQPPLKLDTSSEKLEFLQLFGLTTQQQKEELVAQKRRKRRRMLRERSPSPPTIQSKRQTPSPRLALSTRYSPDEMNNSPNFEEKKKFLTIFNLTHISAEKRKDKERLVEMLRAMKQKALSAAVADSLTNSPRDSPAVSLSEPATQQASLDVEKPVGVAASLSDIPKAAEPGKLEQVRPQELSRVQELAPASGEKARLSEAPGGKKSLSMLHYIRGAAPKDIPVPLSHSTNGKSKPWEPFVAEEFAHQFHESVLQSTQKALQKHKGSVAVLSAEQNHKVDTSVHYNIPELQSSSRAPPPQHNGQQEPPTARKGPPTQELDRDSEEEEEEDDEDGEDEEEVPKRKWQGIEAVFEAYQEHIEEQNLERQVLQTQCRRLEARHYSLSLTAEQLSHSVAELRSQKQKMVSERERLQAELDHLRKCLALPAMHWPRGYLKGYPR
partner: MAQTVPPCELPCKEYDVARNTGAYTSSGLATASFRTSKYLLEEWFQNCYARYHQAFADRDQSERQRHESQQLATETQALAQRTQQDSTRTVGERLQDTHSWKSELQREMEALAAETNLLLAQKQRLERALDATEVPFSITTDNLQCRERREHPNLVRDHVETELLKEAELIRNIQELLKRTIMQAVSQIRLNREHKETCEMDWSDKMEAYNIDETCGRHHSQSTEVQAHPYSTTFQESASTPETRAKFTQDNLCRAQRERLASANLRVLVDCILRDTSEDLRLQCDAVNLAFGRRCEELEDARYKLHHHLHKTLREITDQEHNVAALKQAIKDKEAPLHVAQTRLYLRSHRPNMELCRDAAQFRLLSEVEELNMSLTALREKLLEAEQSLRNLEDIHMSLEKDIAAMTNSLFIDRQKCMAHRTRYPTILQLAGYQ
B3: Retinoic acid receptor alpha (Homo sapiens), P10276 (parent)
chain: MASNSSSCPTPGGGHLNGYPVPPYAFFFPPMLGGLSPPGALTTLQHQLPVSGYSTPSPATIETQSSSSEEIVPSPPSPPPLPRIYKPCFVCQDKSSGYHYGVSACEGCKGFFRRSIQKNMVYTCHRDKNCIINKVTRNRCQYCRLQKCFEVGMSKESVRNDRNKKKKEVPKPECSESYTLTPEVGELIEKVRKAHQETFPALCQLGKYTTNNSSEQRVSLDIDLWDKFSELSTKCIIKTVEFAKQLPGFTTLTIADQITLLKAACLDILILRICTRYTPEQDTMTFSDGLTLNRTQMHNAGFGPLTDLVFAFANQLLPLEMDDAETGLLSAICLICGDRQDLEQPDRVDMLQEPLLEALKVYVRKRRPSRPHMFPKMLMKITDLRSISAKGAERVITLKMEIPGSMPPLIQEMLENSEGLDTLSGQPGGGGRDGGGLAPPPGSCSPSLSPSSNRSSPATHSP
partner: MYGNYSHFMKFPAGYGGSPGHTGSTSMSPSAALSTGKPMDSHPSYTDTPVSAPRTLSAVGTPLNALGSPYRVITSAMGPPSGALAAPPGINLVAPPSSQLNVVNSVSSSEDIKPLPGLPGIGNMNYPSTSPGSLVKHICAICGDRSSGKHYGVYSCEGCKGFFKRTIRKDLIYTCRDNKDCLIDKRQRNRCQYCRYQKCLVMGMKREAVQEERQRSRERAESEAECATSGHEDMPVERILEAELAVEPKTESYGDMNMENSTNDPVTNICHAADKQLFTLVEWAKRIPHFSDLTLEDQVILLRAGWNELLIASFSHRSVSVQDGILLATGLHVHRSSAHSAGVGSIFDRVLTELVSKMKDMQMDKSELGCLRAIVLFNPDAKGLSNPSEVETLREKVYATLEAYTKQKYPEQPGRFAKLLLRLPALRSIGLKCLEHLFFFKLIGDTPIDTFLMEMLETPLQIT
B4: Pleckstrin homology domain-containing family G member 2 (Homo sapiens), Q9H7P9 (parent)
chain: MPEGAQGLSLSKPSPSLGCGRRGEVCDCGTVCETRTAPAAPTMASPRGSGSSTSLSTVGSEGDPAPGPTPACSASRPEPLPGPPIRLHLSPVGIPGSARPSRLERVAREIVETERAYVRDLRSIVEDYLGPLLDGGVLGLSVEQVGTLFANIEDIYEFSSELLEDLENSSSAGGIAECFVQRSEDFDIYTLYCMNYPSSLALLRELSLSPPAALWLQERQAQLRHSLPLQSFLLKPVQRILKYHLLLQELGKHWAEGPGTGGREMVEEAIVSMTAVAWYINDMKRKQEHAARLQEVQRRLGGWTGPELSAFGELVLEGAFRGGGGGGPRLRGGERLLFLFSRMLLVAKRRGLEYTYKGHIFCCNLSVSESPRDPLGFKVSDLTIPKHRHLLQAKNQEEKRLWIHCLQRLFFENHPASIPAKAKQVLLENSLHCAPKSKPVLEPLTPPLGSPRPRDARSFTPGRRNTAPSPGPSVIRRGRRQSEPVKDPYVMFPQNAKPGFKHAGSEGELYPPESQPPVSGSAPPEDLEDAGPPTLDPSGTSITEEILELLNQRGLRDPGPSTHDIPKFPGDSQVPGDSETLTFQALPSRDSSEEEEEEEEGLEMDERGPSPLHVLEGLESSIAAEMPSIPCLTKIPDVPNLPEIPSRCEIPEGSRLPSLSDISDVFEMPCLPAIPSVPNTPSLSSTPTLSCDSWLQGPLQEPAEAPATRRELFSGSNPGKLGEPPSGGKAGPEEDEEGVSFTDFQPQDVTQHQGFPDELAFRSCSEIRSAWQALEQGQLARPGFPEPLLILEDSDLGGDSGSGKAGAPSSERTASRVRELARLYSERIQQMQRAETRASANAPRRRPRVLAQPQPSPCLPQEQAEPGLLPAFGHVLVCELAFPLTCAQESVPLGPAVWVQAAIPLSKQGGSPDGQGLHVSNLPKQDLPGIHVSAATLLPEQGGSRHVQAPAATPLPKQEGPLHLQVPALTTFSDQGHPEIQVPATTPLPEHRSHMVIPAPSTAFCPEQGHCADIHVPTTPALPKEICSDFTVSVTTPVPKQEGHLDSESPTNIPLTKQGGSRDVQGPDPVCSQPIQPLSWHGSSLDPQGPGDTLPPLPCHLPDLQIPGTSPLPAHGSHLDHRIPANAPLSLSQELPDTQVPATTPLPLPQVLTDIWVQALPTSPKQGSLPDIQGPAAAPPLPEPSLTDTQVQKLTPSLEQKSLIDAHVPAATPLPERGGSLDIQGLSPTPVQTTMVLSKPGGSLASHVARLESSDLTPPHSPPPSSRQLLGPNAAALSRYLAASYISQSLARRQGPGGGAPAASRGSWSSAPTSRASSPPPQPQPPPPPARRLSYATTVNIHVGGGGRLRPAKAQVRLNHPALLASTQESMGLHRAQGAPDAPFHM

Variants of: B1
Settings: with scnm1_human SCNM1, Q9BWG6

| Variant | effect of a mutation on the interaction |
| --- | --- |
| D306A | with no effect |

Variants of: B2
Settings: with tekt4_human TEKT4, Q8WW24

| Variant | effect of a mutation on the interaction |
| --- | --- |
| R503Q | with no effect |

Variants of: B2
Settings: with tekt4_human TEKT4, Q8WW24
Remark: another data set of the same source

| Variant | effect of a mutation on the interaction |
| --- | --- |
| E368K | with no effect |

Variants of: B3
Settings: with rxrg_human RXRG

| Variant | effect of a mutation on the interaction |
| --- | --- |
| R83H | with no effect |

Variants of: B3
Settings: with rxrg_human RXRG
Remark: another data set of the same source

| Variant | effect of a mutation on the interaction |
| --- | --- |
| P375L | disrupting interaction strength |

Variants of: B4
Settings: with actn3_human ACTN3, Q08043
actn3_human ACTN3, Q08043, sequence (Q08043 whole entry): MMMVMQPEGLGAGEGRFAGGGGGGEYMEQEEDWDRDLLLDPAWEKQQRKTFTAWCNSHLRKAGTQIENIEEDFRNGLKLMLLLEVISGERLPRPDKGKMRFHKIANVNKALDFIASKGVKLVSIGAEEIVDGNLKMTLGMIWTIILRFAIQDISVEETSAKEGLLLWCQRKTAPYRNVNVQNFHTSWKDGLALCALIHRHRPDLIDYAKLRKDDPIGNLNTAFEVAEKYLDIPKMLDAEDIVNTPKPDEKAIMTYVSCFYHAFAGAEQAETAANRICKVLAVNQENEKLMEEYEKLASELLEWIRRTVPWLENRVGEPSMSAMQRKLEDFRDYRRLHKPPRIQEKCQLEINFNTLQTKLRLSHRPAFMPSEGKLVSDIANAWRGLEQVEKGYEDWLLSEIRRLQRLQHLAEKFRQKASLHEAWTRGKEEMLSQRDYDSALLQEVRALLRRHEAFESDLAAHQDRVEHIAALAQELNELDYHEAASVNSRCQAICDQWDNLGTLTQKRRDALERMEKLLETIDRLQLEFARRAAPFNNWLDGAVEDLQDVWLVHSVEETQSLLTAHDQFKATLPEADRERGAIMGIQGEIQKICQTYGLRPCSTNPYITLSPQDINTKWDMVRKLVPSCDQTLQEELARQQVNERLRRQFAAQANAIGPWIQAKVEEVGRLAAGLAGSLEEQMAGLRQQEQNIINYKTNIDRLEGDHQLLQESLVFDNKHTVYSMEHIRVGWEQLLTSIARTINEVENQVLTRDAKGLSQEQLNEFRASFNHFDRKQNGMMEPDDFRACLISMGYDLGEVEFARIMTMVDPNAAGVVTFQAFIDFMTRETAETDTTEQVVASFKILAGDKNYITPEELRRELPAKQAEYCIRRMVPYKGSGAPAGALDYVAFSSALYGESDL

| Variant | effect of a mutation on the interaction |
| --- | --- |
| V1248I | with no effect |
